According to IntAct's records for PubMed 17711851:

B1: Golgi resident protein GCP60 (Homo sapiens), Q9H3P7 (parent)
chain: MAAVLNAERLEVSVDGLTLSPDPEERPGAEGAPLLPPPLPPPSPPGSGRGPGASGEQPEPGEAAAGGAAEEARRLEQRWGFGLEELYGLALRFFKEKDGKAFHPTYEEKLKLVALHKQVLMGPYNPDTCPEVGFFDVLGNDRRREWAALGNMSKEDAMVEFVKLLNRCCHLFSTYVASHKIEKEEQEKKRKEEEERRRREEEERERLQKEEEKRRREEEERLRREEEERRRIEEERLRLEQQKQQIMAALNSQTAVQFQQYAAQQYPGNYEQQQILIRQLQEQHYQQYMQQLYQVQLAQQQAALQKQQEVVVAGSSLPTSSKVNATVPSNMMSVNGQAKTHTDSSEKELEPEAAEEALENGPKESLPVIAAPSMWTRPQIKDFKEKIQQDADSVITVGRGEVVTVRVPTHEEGSYLFWEFATDNYDIGFGVYFEWTDSPNTAVSVHVSESSDDDEEEEENIGCEEKAKKNANKPLLDEIVPVYRRDCHEEVYAGSHQYPGRGVYLLKFDNSYSLWRSKSVYYRVYYTR
partner: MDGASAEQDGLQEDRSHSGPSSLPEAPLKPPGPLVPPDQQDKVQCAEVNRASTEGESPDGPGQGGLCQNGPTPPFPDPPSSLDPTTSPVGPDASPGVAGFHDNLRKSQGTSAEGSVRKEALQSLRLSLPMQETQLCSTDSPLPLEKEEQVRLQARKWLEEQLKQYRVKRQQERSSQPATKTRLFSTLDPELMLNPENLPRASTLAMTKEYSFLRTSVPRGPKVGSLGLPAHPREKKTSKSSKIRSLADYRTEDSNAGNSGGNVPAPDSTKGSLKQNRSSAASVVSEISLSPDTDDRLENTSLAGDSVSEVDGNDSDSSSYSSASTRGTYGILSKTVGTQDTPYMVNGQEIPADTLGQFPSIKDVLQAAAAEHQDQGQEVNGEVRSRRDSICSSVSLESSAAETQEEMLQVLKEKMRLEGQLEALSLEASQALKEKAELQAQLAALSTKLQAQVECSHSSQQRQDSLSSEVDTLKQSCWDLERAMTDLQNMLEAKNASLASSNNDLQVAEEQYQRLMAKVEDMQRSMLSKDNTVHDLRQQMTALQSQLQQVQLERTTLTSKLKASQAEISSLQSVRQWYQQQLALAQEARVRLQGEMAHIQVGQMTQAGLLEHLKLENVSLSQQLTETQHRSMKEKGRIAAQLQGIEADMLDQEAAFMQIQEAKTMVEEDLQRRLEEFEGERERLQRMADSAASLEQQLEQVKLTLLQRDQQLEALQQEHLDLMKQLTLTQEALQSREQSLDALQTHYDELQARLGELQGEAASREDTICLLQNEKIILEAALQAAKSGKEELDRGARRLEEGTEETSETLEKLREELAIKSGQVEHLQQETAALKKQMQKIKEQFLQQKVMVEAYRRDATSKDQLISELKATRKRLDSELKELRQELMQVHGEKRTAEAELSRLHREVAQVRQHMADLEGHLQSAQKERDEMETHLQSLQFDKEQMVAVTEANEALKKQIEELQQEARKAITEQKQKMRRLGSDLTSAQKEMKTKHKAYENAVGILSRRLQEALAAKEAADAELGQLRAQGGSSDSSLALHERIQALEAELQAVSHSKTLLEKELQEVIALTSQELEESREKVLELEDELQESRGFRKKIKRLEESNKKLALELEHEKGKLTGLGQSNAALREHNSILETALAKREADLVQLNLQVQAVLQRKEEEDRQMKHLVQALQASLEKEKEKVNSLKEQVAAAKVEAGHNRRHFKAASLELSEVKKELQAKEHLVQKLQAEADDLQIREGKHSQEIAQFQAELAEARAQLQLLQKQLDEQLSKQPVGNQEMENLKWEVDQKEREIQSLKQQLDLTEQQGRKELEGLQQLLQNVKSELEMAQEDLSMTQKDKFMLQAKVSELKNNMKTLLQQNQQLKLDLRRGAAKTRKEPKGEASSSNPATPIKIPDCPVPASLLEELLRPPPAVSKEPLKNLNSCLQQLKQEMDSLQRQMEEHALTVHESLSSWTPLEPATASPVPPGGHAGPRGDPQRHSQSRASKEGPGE

Variants of: B1
Conditions: with goga3_human GOLGA3, Q08378

Row | Variant | effect of a mutation on the interaction
1 | MAAVLNAERLEVSVDGLTLSPDPEERPGAEGAPLLPPPLPPPSPPGSGRGPGASGEQPEPGEAAAGGAAEEARRLEQRWGFGLEELYGLALRFFKEKDGKAFHPTYEEKLKLVALHKQVLMGPYNPDTCPEVGFFDVLGNDRRREWAALGNMSKEDAMVEFVKLLNRCCHLFSTYVASHKIEKEEQEKKRKEEEERRRREEEERERLQKEEEKRRREEEERLRREEEERRRIEEERLRLEQQKQQIMAALNSQTAVQFQQYAAQQYPGNYEQQQILIRQLQEQHYQQYMQQLYQVQLAQQQAALQKQQEVVVAGSSLPTSSKVNATVPSNMMSVNGQAKTHTDSSEKELEPEAAEEALENGPKESLPVIAAPSMWTRPQIKDFKEKIQQDADSVITVGRGEVVTVRVPTHEEGSYLFWEFATDNYDIGFGVYFEWTDSPNTAVSVHVSESSDDDEEEEENIGSEEKAKKNANKPLLDEIVPVYRRDCHEEVYAGSHQYPGRGVYLLKFDNSYSLWRSKSVYYRVYYTR [C463S] | disrupting interaction
